Experimental findings from PMC3062594, “Intermolecular masking of the HIV-1 Rev NLS by the cellular protein HIC: Novel insights into the regulation of Rev nuclear import” (Retrovirology, 2011) are described below.

This assay deals with T1, recombinant 6×His-HIC (Human I-mfa domain-Containing protein) (human, UniProt Q9P1T7-2 1-246).
T1 construct: also called 6xHis-HIC; 6ΧHis HIC; source: recombinant, purified; produced as described previously [25]; not shown: 6xHis, N-terminal, kept
T1 sequence (looked up): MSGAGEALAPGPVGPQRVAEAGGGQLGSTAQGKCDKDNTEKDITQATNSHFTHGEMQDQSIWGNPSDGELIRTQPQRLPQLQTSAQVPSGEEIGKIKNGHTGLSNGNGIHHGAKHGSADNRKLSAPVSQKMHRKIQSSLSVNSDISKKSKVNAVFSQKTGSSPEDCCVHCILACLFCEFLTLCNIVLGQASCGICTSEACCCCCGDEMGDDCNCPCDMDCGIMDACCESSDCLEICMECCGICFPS
The assay can be described thus: pull-down. The note with it: both partners purified.

B1: GST-YFP-RevNLS (aa35-46) (domain or fragment)
chain: RQARRNRRRRWR
notes: source: recombinant GST fusion protein, purified; produced as described previously; not shown: GST, N-terminal, kept; YFP, N-terminal, kept
On to B1, for which the binding result is on record as “binds”.
